Data: PMC11452484 (Nature Communications, 2024)

Molecular target: the molecule itself
Assay: cryo-EM structure

Row | Protein | stoichiometry N | binding result
1 | G. sulfurreducens SPARSA complex (short pAgo/Sir2-APAZ heterodimer) (complex) chain 1: not shown chain 2: MDVLTDNEFYQHYLQNSQHMMWFLGAGTSRSAGLPTASDIIWDLKHRYYCLHENQDYQKHDINNHAIKSKIQSYMDSKGFPLQWSPEEYSFYFELVFRDDYEAQRKYLLEALASRKVSLNIGHRVLAALLEMNQTKVVFTTNFDDVIETAFSDISGKHLSVYHLEGSYAALSALNTEAFPIYAKIHGDFRYQKIKNLTPDLQTNDREIHKCFLAAAIRFGLVVSGYSGRDENVMTMLRAAIDQNNAFPHGLYWTVPSISKSEPAVQDLITYAQGKGVRAYLVETGTFDEMLSKIWRQVKDKPAAIDAKVRTARVCPVSIPLPGPGKSFPALRTNALPVVTQSIRCGVVTLASPITFSELKERISQKSPKALLTYTEKVLFLGGEPEIRKIFSNDEINSIGQYYIDEIAQSVAASTFLKSFVEEAILTALLREKPILHRVRHRTHYAVIPNASAKDDRFLDLRKAVGFKGDLGYITGNVTNAKELSWAEAVSIRLEERGGKLWIMLKPEIWIKPLDRREEATDFIRSRRRYRFNQCSYQILDAWIKILFGSIGGGGTVNISCFPDAEFKAEFEIGTRTAFSLGVGYGR | 4 | 
2 | Geobacter sulfurreducens Sir2-APAZ (natural protein, UniProt Q74DF6 1-587, looked up) MDVLTDNEFYQHYLQNSQHMMWFLGAGTSRSAGLPTASDIIWDLKHRYYCLHENQDYQKHDINNHAIKSKIQSYMDSKGFPLQWSPEEYSFYFELVFRDDYEAQRKYLLEALASRKVSLNIGHRVLAALLEMNQTKVVFTTNFDDVIETAFSDISGKHLSVYHLEGSYAALSALNTEAFPIYAKIHGDFRYQKIKNLTPDLQTNDREIHKCFLAAAIRFGLVVSGYSGRDENVMTMLRAAIDQNNAFPHGLYWTVPSISKSEPAVQDLITYAQGKGVRAYLVETGTFDEMLSKIWRQVKDKPAAIDAKVRTARVCPVSIPLPGPGKSFPALRTNALPVVTQSIRCGVVTLASPITFSELKERISQKSPKALLTYTEKVLFLGGEPEIRKIFSNDEINSIGQYYIDEIAQSVAASTFLKSFVEEAILTALLREKPILHRVRHRTHYAVIPNASAKDDRFLDLRKAVGFKGDLGYITGNVTNAKELSWAEAVSIRLEERGGKLWIMLKPEIWIKPLDRREEATDFIRSRRRYRFNQCSYQILDAWIKILFGSIGGGGTVNISCFPDAEFKAEFEIGTRTAFSLGVGYGR |  | binds
